Experimental data reported in the supplement of paper PMC9233669.
Variants at the floor of the assay were thinned out.

How the values were obtained:
biotinyl-Leu-oxazolone = test: self-aminoacylation, catalytic enhancement (BLO) (fold over background); higher = more active; k-Seq, kA / k0A0; sequences stand for … in GGGAAUGGAUCCACAUCUACGAAUUC…UUCACUGCAGACUUGACGAAGCUG
Procedure, shortened: (§1)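 Each biotinyl-aminoacyl-oxazolone, at 2–1250 μM, was incubated with mutagenized RNA pools (0.43 μM) carrying a 21-nt variable region. The 50 μL reactions contained HEPES/NaCl/KCl/MgCl2/CaCl2 buffer with 5% acetonitrile at pH 6.9–7.0 and ran for 90 minutes at room temperature. After streptavidin capture, RNA was measured by qPCR in triplicate and by Illumina sequencing, and catalytic enhancement was calculated as median kA over the uncatalyzed rate from a pseudo-first-order fit of per-sequence fraction reacted.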

biotinyl-Met-oxazolone = test: self-aminoacylation, catalytic enhancement (BMO) (fold over background); higher = more active; k-Seq, kA / k0A0; sequences stand for … in GGGAAUGGAUCCACAUCUACGAAUUC…UUCACUGCAGACUUGACGAAGCUG
Procedure, shortened: as §1

biotinyl-Val-oxazolone = test: self-aminoacylation, catalytic enhancement (BVO) (fold over background); higher = more active; k-Seq, kA / k0A0; sequences stand for … in GGGAAUGGAUCCACAUCUACGAAUUC…UUCACUGCAGACUUGACGAAGCUG
Procedure, shortened: as §1

biotinyl-Phe-oxazolone = test: self-aminoacylation, catalytic enhancement (BFO) (fold over background); higher = more active; k-Seq, kA / k0A0; sequences stand for … in GGGAAUGGAUCCACAUCUACGAAUUC…UUCACUGCAGACUUGACGAAGCUG
Procedure, shortened: as §1

biotinyl-Trp-oxazolone = test: self-aminoacylation, catalytic enhancement (BWO) (fold over background); higher = more active; k-Seq, kA / k0A0; sequences stand for … in GGGAAUGGAUCCACAUCUACGAAUUC…UUCACUGCAGACUUGACGAAGCUG
Procedure, shortened: as §1

biotinyl-Ile-oxazolone = test: self-aminoacylation, catalytic enhancement (BIO) (fold over background); higher = more active; k-Seq, kA / k0A0; sequences stand for … in GGGAAUGGAUCCACAUCUACGAAUUC…UUCACUGCAGACUUGACGAAGCUG
Procedure, shortened: as §1

| Sequence | self-aminoacylation (biotinyl-Leu-oxazolone) | self-aminoacylation (biotinyl-Met-oxazolone) | self-aminoacylation (biotinyl-Val-oxazolone) | self-aminoacylation (biotinyl-Phe-oxazolone) | self-aminoacylation (biotinyl-Trp-oxazolone) | self-aminoacylation (biotinyl-Ile-oxazolone) |
| --- | --- | --- | --- | --- | --- | --- |
| AUUAACCUGGUCAUCGUGUGA [Fam2.1 aminoacylation ribozyme variant] | 3.13 | 3.13 | 1.82 | 13.1 | 3.69 | 1.69 |
| AUUAAGCUGGUCAUCGAGUGA [Fam2.1 aminoacylation ribozyme variant] | 3.05 | 3.07 | 2.36 | 4.33 | 3.85 | 2.77 |
| AUUACAAUGGUCAUCGAGUGA [Fam2.1 aminoacylation ribozyme variant] | 6.42 | 6.47 | 3.54 | 16.6 | 7.87 | 3.7 |
| AUUACACCGGUCAUCGAGUGA [Fam2.1 aminoacylation ribozyme variant] | 6.36 | 5.76 | 2.96 | 29.4 | 5.95 | 2.95 |
| AUUACACUGGACAUCGAGUGA [Fam2.1 aminoacylation ribozyme variant] | 6.11 | 5.83 | 2.87 | 14.9 | 6.45 | 3.23 |
| AUUACACUGGUCAGCGAGUGA [Fam2.1 aminoacylation ribozyme variant] | 5.37 | 4.36 | 2.58 | 16.9 | 5.83 | 3.4 |
| AUUACACUGGUCAUCGAGCGA [Fam2.1 aminoacylation ribozyme variant] | 2.29 | 2.15 | 1.96 | 0.889 | 1.8 | 1.64 |
| AUUACACUGGUCAUCGAGUCA [Fam2.1 aminoacylation ribozyme variant] | 0.857 | 0.865 | 0.83 | 0.583 | 0.497 | 0.877 |
| AUUACACUGGUCAUUGAGUGA [Fam2.1 aminoacylation ribozyme variant] | 6.76 | 6.48 | 3.28 | 35 | 7.64 | 3.39 |
| AUUACAGUGGUCAUCGAGUGA [Fam2.1 aminoacylation ribozyme variant] | 1.44 | 1.87 | 1.76 | 1.09 | 1.78 | 1.75 |
| AUUACCAGGGUCAUCGAGUGA [Fam2.1 aminoacylation ribozyme variant] | 5.09 | 4.43 | 3.1 | 17.2 | 5.56 | 3.1 |
| AUUACCAUAGUCAUCGAGUGA [Fam2.1 aminoacylation ribozyme variant] | 7.53 | 7.07 | 3.89 | 43.4 | 9.11 | 4.32 |
| AUUACCAUGGUCAGCGAGUGA [Fam2.1 aminoacylation ribozyme variant] | 6.19 | 5.49 | 3.19 | 30.7 | 6.31 | 3.11 |
| AUUACCAUGGUCAUCGAGAGA [Fam2.1 aminoacylation ribozyme variant] | 0.937 | 0.859 | 0.864 | 0.497 | 1.38 | 0.797 |
| AUUACCAUGGUCAUCGAGUAA [Fam2.1 aminoacylation ribozyme variant] | 1.33 | 1.7 | 1.42 | 1.09 | 1.28 | 1.41 |
| AUUACCAUGGUCAUCGAGUGC [Fam2.1 aminoacylation ribozyme variant] | 1.47 | 1.38 | 1.17 | 0.948 | 1.35 | 1.12 |
| AUUACCAUGGUCAUCGAGUGG [Fam2.1 aminoacylation ribozyme variant] | 3.14 | 2.45 | 1.63 | 2.67 | 2.18 | 1.72 |
| AUUACCAUGGUCAUCGCGUGA [Fam2.1 aminoacylation ribozyme variant] | 25.2 | 24.6 | 12.1 | 189 | 26.7 | 10.3 |
| AUUACCAUGGUCCUCGAGUGA [Fam2.1 aminoacylation ribozyme variant] | 5.83 | 4.88 | 2.68 | 29.3 | 4.82 | 2.48 |
| AUUACCCAGGUCAUCAAGUGA [Fam2.1 aminoacylation ribozyme variant] | 1.97 | 1.97 | 1.59 | 3.35 | 2.63 | 1.47 |
| AUUACCCAGGUCAUCGACUGA [Fam2.1 aminoacylation ribozyme variant] | 0.746 | 0.743 | 1.03 | 0.774 | 0.9 | 0.847 |
| AUUACCCAGGUCAUCGAGUUA [Fam2.1 aminoacylation ribozyme variant] | 0.915 | 0.882 | 1 | 1.39 | 1.32 | 1.01 |
| AUUACCCAGGUCAUGGAGUGA [Fam2.1 aminoacylation ribozyme variant] | 4.67 | 3.83 | 3.01 | 8.43 | 4.7 | 2.85 |
| AUUACCCAGGUUAUCGAGUGA [Fam2.1 aminoacylation ribozyme variant] | 9.68 | 9.6 | 4.25 | 50.4 | 11.6 | 3.94 |
| AUUACCCCAGUCAUCGAGUGA [Fam2.1 aminoacylation ribozyme variant] | 4.88 | 6.05 | 3.25 | 24.9 | 6.76 | 2.92 |
| AUUACCCCGGUCAACGAGUGA [Fam2.1 aminoacylation ribozyme variant] | 4.74 | 5.86 | 3.47 | 28.2 | 6.44 | 3.08 |

| Sequence | self-aminoacylation (biotinyl-Leu-oxazolone) | self-aminoacylation (biotinyl-Met-oxazolone) | self-aminoacylation (biotinyl-Val-oxazolone) | self-aminoacylation (biotinyl-Phe-oxazolone) | self-aminoacylation (biotinyl-Trp-oxazolone) | self-aminoacylation (biotinyl-Ile-oxazolone) |
| --- | --- | --- | --- | --- | --- | --- |
| AUUACCCCGGUCAUCGGGUGA [Fam2.1 aminoacylation ribozyme variant] | 15.9 | 14.4 | 7.32 | 103 | 12.7 | 5.57 |
| AUUACCCCGGUCAUUGAGUGA [Fam2.1 aminoacylation ribozyme variant] | 6.53 | 7.29 | 3.79 | 43.9 | 8.47 | 3.22 |
| AUUACCCGAGUCAUCGAGUGA [Fam2.1 aminoacylation ribozyme variant] | 8.84 | 8.55 | 4.68 | 62.6 | 10.2 | 4.27 |
| AUUACCCGGAUCAUCGAGUGA [Fam2.1 aminoacylation ribozyme variant] | 7.92 | 7.04 | 4.04 | 38.4 | 7.26 | 3.43 |
| AUUACCCGGGUCAGCGAGUGA [Fam2.1 aminoacylation ribozyme variant] | 7.97 | 8.03 | 5.24 | 55.5 | 10.2 | 5.75 |
| AUUACCCGGGUCAUCGAGUGG [Fam2.1 aminoacylation ribozyme variant] | 1.92 | 1.63 | 1.81 | 10.1 | 2.45 | 1.25 |
| AUUACCCGGGUCAUCUAGUGA [Fam2.1 aminoacylation ribozyme variant] | 11 | 9.33 | 5.08 | 70.8 | 11.2 | 4.46 |
| AUUACCCGGGUCAUGGAGUGA [Fam2.1 aminoacylation ribozyme variant] | 4.59 | 4.26 | 2.87 | 25.8 | 4.98 | 2.82 |
| AUUACCCGGGUCCUCGAGUGA [Fam2.1 aminoacylation ribozyme variant] | 7.78 | 5.42 | 3.84 | 47.4 | 7.11 | 3.5 |
| AUUACCCUAGUCAUCGAAUGA [Fam2.1 aminoacylation ribozyme variant] | 0.924 | 1.02 | 1.06 | 0.87 | 0.469 | 0.919 |
| AUUACCCUAGUCAUCGAGUUA [Fam2.1 aminoacylation ribozyme variant] | 0.9 | 0.978 | 1.17 | 1.05 | 0.53 | 0.922 |
| AUUACCCUAGUCCUCGAGUGA [Fam2.1 aminoacylation ribozyme variant] | 3.93 | 4.15 | 2.34 | 15.9 | 4.08 | 2.2 |
| AUUACCCUAGUCUUCGAGUGA [Fam2.1 aminoacylation ribozyme variant] | 5 | 5.54 | 3.22 | 24.6 | 7.87 | 3.09 |
| AUUACCCUAUUCAUCGAGUGA [Fam2.1 aminoacylation ribozyme variant] | 4.15 | 4.25 | 2.66 | 17.3 | 6.86 | 2.37 |
| AUUACCCUCAUCAUCGAGUGA [Fam2.1 aminoacylation ribozyme variant] | 10.7 | 10.5 | 5.02 | 74.1 | 11.9 | 4.69 |
| AUUACCCUCGCCAUCGAGUGA [Fam2.1 aminoacylation ribozyme variant] | 7.31 | 6.67 | 3.97 | 41.1 | 8.23 | 3.71 |
| AUUACCCUCGUCAUCGAGUGU [Fam2.1 aminoacylation ribozyme variant] | 2 | 1.88 | 1.4 | 1.56 | 1.49 | 1.34 |
| AUUACCCUGACCAUCGAGUGA [Fam2.1 aminoacylation ribozyme variant] | 4.95 | 4.2 | 2.95 | 8.94 | 5.06 | 3.01 |
| AUUACCCUGAGCAUCGAGUGA [Fam2.1 aminoacylation ribozyme variant] | 3.99 | 4.43 | 2.45 | 8.97 | 4.96 | 2.06 |
| AUUACCCUGAUAAUCGAGUGA [Fam2.1 aminoacylation ribozyme variant] | 10.3 | 9.64 | 4.59 | 39.8 | 11.1 | 4.12 |
| AUUACCCUGAUCAUCGAGAGA [Fam2.1 aminoacylation ribozyme variant] | 0.765 | 0.577 | 0.913 | 0.905 | 0.629 | 1.02 |
| AUUACCCUGAUCAUCGAGGGA [Fam2.1 aminoacylation ribozyme variant] | 1.87 | 1.02 | 1.21 | 0.999 | 2.33 | 1.09 |
| AUUACCCUGCGCAUCGAGUGA [Fam2.1 aminoacylation ribozyme variant] | 5.76 | 5.86 | 2.56 | 20.5 | 6.75 | 2.03 |
| AUUACCCUGCUCAACGAGUGA [Fam2.1 aminoacylation ribozyme variant] | 5.59 | 5.64 | 3.25 | 24.7 | 6.69 | 2.33 |
| AUUACCCUGCUCACCGAGUGA [Fam2.1 aminoacylation ribozyme variant] | 6.12 | 5.34 | 3.35 | 39 | 6.29 | 2.76 |
